Reference: paper PMC12757481, “The dihydropyridine LA1011 modulates multiple Hsp90—co-chaperone interactions relevant to Alzheimer’s disease” (Cell Stress & Chaperones, 2025)
Several values for one entry are separate records, joined by “and”; a condition that tells them apart may be missing. Equal values may be shown once. Read-outs that look alike come from different tables or passages of the source.

Key:
Hsp90-LA1011 = target: T1, Hsp90-LA1011 (Saccharomyces cerevisiae, UniProt P02829); experiment: ITC, co-chaperone binding to Hsp90-LA1011 complex; design: species or system yeast
T1 construct: made in house
T1 sequence (P02829 whole entry): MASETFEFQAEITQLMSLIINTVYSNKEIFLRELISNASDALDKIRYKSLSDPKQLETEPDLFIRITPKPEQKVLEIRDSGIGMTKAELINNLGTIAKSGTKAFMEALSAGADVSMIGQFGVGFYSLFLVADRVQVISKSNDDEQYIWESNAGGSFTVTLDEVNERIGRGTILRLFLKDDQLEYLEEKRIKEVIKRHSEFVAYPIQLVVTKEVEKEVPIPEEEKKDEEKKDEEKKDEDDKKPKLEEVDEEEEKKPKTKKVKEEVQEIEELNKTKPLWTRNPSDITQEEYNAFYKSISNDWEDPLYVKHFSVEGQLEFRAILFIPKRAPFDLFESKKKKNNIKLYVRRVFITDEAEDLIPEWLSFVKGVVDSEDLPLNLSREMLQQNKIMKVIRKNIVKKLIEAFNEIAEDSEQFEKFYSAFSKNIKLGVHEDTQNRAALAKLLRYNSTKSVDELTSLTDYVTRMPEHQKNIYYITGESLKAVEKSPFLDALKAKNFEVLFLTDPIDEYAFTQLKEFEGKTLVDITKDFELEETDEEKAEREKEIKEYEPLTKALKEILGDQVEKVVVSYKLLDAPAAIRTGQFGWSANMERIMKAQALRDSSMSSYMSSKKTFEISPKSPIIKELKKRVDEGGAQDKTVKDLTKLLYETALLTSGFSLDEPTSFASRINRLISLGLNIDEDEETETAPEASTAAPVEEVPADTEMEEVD
Method: (§1) The heat of interaction was measured on an ITC200 microcalorimeter (Microcal) under the same buffer conditions (20 mM Tris, pH 7.5, containing 5 mM NaCl), except for experiments using PP5, where we omitted EDTA and used 1 μM MnCl2. In experiments using nucleotide, we used 5 mM AMPPNP and 6 mM MgCl2. For experiments using Aha1 with AMPPNP the buffer contained 100 mM NaCl. Similarly, Sgt1 experiments also included 100 mM NaCl in the buffer. […] To assess co-chaperone binding to Hsp90 and Hsp90-LA1011 complex, we generally injected aliquots of co-chaperone at concentrations ranging from 200 to 400 μM into the microcell containing the Hsp90 or Hsp90-LA1011 complex at concentrations ranging from 20 to 30 μM of Hsp90 or Hsp90 in complex with 2 mM LA1011 at 30 °C. Heats of dilution were determined by diluting the injectant into the buffer. Data were fitted using a curve-fitting algorithm (Microcal Origin) either as a one-site binding event or as two independent binding sites as required.

Hsp90 [1] = target: T2, Hsp90 (Saccharomyces cerevisiae, UniProt P02829); experiment: ITC, co-chaperone binding to Hsp90; design: species or system yeast
T2 construct: made in house
T2 sequence (P02829 whole entry): as above
Method: as §1

Hsp90 [2] = target: T2, Hsp90; experiment: Lactate-dehydrogenase and pyruvate-kinase-linked Hsp90 ATPase assay; type: biochemical, yeast; conditions: for effect of LA1011 on the co-chaperone directed regulation of Hsp90 ATPase activity: 2 μM Hsp90, 240 μM LA1011, co-chaperone 0.25 to 30 μM, normalized data compared with control lacking LA1011
Method: ATPase assays using 2 μM Hsp90 were conducted as previously described using the lactate-dehydrogenase and pyruvate-kinase-linked assay.[12] Briefly, 240 μM of LA1011 was used in assays as required. Co-chaperones were added to Hsp90 and Hsp90-LA1011 complex at a variety of concentrations ranging from 0.25 to 30 μM. Assays utilizing LA1011 were normalized by recalculating the activity for all data points so that the data points were converted to a percentage of the activity relative to the first data point, which lacked any addition of co-chaperone. The first data point was therefore 100% max Hsp90 activity. All assays were conducted at least in triplicate.
To assess the effect of LA1011 on the mechanistic action of co-chaperones, we used the lactate-dehydrogenase and pyruvate-kinase-linked Hsp90 ATPase assay. We first assessed the effect of each co-chaperone on Hsp90 ATPase activity and then compared its effect on a Hsp90-LA1011 complex.

[3] = ITC 30 °C, Hsp90 in complex with 2 mM LA1011, one-site fit, read-out: Kd
[4] = ITC 30 °C, co-chaperone and Hsp90 without LA1011, one-site fit, read-out: Kd

Molecule | Kd (Hsp90-LA1011; [3]) [nM] | Kd (Hsp90 [1]; [4]) [nM] | effect on Hsp90 ATPase activity (Hsp90 [2]; 2 μM Hsp90) | effect of LA1011 on the co-chaperone directed regulation of Hsp90 ATPase activity (Hsp90 [2]) | Kd (Hsp90-LA1011; ITC, Hsp90 with 2 mM LA1011, two-site fit, value listed first in Table 2 and figures, read-out: Kd (two-site fit, first value listed)) [nM] | Kd (Hsp90-LA1011; ITC, Hsp90 with 2 mM LA1011, two-site fit, value listed second in Table 2 and figures, read-out: Kd (two-site fit, second value listed)) | Kd (Hsp90 [1]; ITC, Hsp90 without LA1011, two-site fit, value listed first in Table 2 and figures, read-out: Kd (two-site fit, first value listed)) [nM] | Kd (Hsp90 [1]; ITC, Hsp90 without LA1011, two-site fit, value listed second in Table 2 and figures, read-out: Kd (two-site fit, second value listed))
CHIP: mouse CHIP, Hsp90-dependent E3 ubiquitin ligase co-chaperone, dimeric (protein, UniProt Q9WUD1 1-304, looked up) E3 ubiquitin-protein ligase …: MKGKEEKEGGARLGTGGGGSPDKSPSAQELKEQGNRLFVGRKYPEAAACYGRAITRNPLVAVYYTNRALCYLKMQQPEQALADCRRALELDGQSVKAHFFLGQCQLEMESYDEAIANLQRAYSLAKEQRLNFGDDIPSALRIAKKKRWNSIEERRIHQESELHSYLTRLIAAERERELEECQRNHEGHEDDGHIRAQQACIEAKHDKYMADMDELFSQVDEKRKKRDIPDYLCGKISFELMREPCITPSGITYDRKDIEEHLQRVGHFDPVTRSPLTQEQLIPNLAMKEVIDAFISENGWVEDY | 1440 | 80 | inhibitor of the ATPase activity of Hsp90 | LA1011 affects CHIP’s ability to inhibit Hsp90 ATPase activity |  |  |  | 
FKBP52: Hsp90 co-chaperone, TPR domain-containing protein (protein, UniProt Q02790 1-459, looked up) Peptidyl-prolyl cis-trans …: MTAEEMKATESGAQSAPLPMEGVDISPKQDEGVLKVIKREGTGTEMPMIGDRVFVHYTGWLLDGTKFDSSLDRKDKFSFDLGKGEVIKAWDIAIATMKVGEVCHITCKPEYAYGSAGSPPKIPPNATLVFEVELFEFKGEDLTEEEDGGIIRRIQTRGEGYAKPNEGAIVEVALEGYYKDKLFDQRELRFEIGEGENLDLPYGLERAIQRMEKGEHSIVYLKPSYAFGSVGKEKFQIPPNAELKYELHLKSFEKAKESWEMNSEEKLEQSTIVKERGTVYFKEGKYKQALLQYKKIVSWLEYESSFSNEEAQKAQALRLASHLNLAMCHLKLQAFSAAIESCNKALELDSNNEKGLFRRGEAHLAVNDFELARADFQKVLQLYPNNKAAKTQLAVCQQRIRRQLAREKKLYANMFERLAEEENKAKAEASSGDHPTDTEMKEEQKSNTAGSQSQVETEA |  |  |  |  | 2800 | ~200 nM and 200 nM | ~620 | ~620 nM and 620 nM
Sgt1: yeast Sgt1 (amino acid residues 1-280), Hsp90 co-chaperone (protein, UniProt Q08446 1-280, looked up, fragment) MPVEKDLKTAYKALYDEKEPLKALHLYDEILKGSPTNLTALIFKAACLEKLYFGFSDWHSDATMENAKELLDKALMTAEGRGDRSKIGLVNFRYFVHFFNIKDYELAQSYFKKAKNLGYVDDTLPLWEDRLETKLNKKNKKQKDSTNKHTIKPVESIENRGDNNSSHSPISPLKIETAPQESPKFKIDWYQSSTSVTISLFTVNLPESKEQVNIYISPNDRRTLSISYQVPKSGSEFQYNAKLSHEVDPKAVSLKIFPKKLEITLSKIDSTQWKKLEEDI | 13600 | 16200 |  | unaffected by the presence of LA1011 |  |  |  | 
TPR domain of PP5: PP5-TPR domain (amino acid residues 1-177) (protein, UniProt P53041 1-177, looked up, fragment, TPR domain) MAMAEGERTECAEPPRDEPPADGALKRAEELKTQANDYFKAKDYENAIKFYSQAIELNPSNAIYYGNRSLAYLRTECYGYALGDATRAIELDKKYIKGYYRRAASNMALGKFRAALRDYETVVKVKPHDKDAKMKYQECNKIVKQKAFERAIAGDEHKRSVVDSLDIESMTIEDEYS |  |  |  | small but significant effect |  |  |  | 
